Assay: yeast display, Sf9 membrane polyspecificity reagent, FACS + sequencing; frameworks hold sequencing errors
How it was run: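 A synthetic nanobody library was expressed on Saccharomyces cerevisiae BJ5465 by galactose induction for 36–48 hours. The library was stained for 1 hour at 4 °C with 10% biotinylated, detergent-solubilized Sf9 membrane reagent and enriched with streptavidin microbeads before FACS. Low and high (top ~1%) gates were set on anti-HA fluorescence for expression and streptavidin fluorescence for reagent binding, and each polyreactivity label reflects the gate of origin.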

Row | Sequence | polyreactivity (PSR sort gate)
1 | QVQLVESAGGLVQAGGSLRLSCAASGIIFEYYTRGWYRQAPGKERELVASITYDGDSTYYADSVKGRFTISRDNAKNTVYLQMNSLKPEDTAVYYCAADYYYVYSSFGHYYWGQGTQVTVSS | low polyreactivity
2 | QVQLVESGGGLVQAGGSLRLSCAASGYIFPRYAMGWYRQAPGKERELVAAITGSGGSTYYADSVKGRFTISRDNAKNTVYLQMNSLKPEDTAVYYCNTVYYRSGSQRLDYWGQGTQVTVSS | high polyreactivity
3 | QVQLVDSGGGLVQAGGSLRLSCAASGSTSQKNAMGWYRQAPGKERELVAAISSGGSTYYADSVKGRFTISRDNAKNNVYLQLNSLKPEDTAVYNCAAKDLRGLGYWGQGTQVTVSS | high polyreactivity
4 | QVQLVESGGAKVQAGGSLRLSCAASGRTFDYYVMGWNRQAPVKEREFVAAITWSGDSTYYADSVKGRFTISRENAKNTVYLQMNSLKPEDTAVYYCNADYYPTTFYAFVYMYDYWGQGTQVTVSS | low polyreactivity
5 | QVQLVESGGGLVQAGGSLRLSCAASGIIFRRYAMGWYRQAPGKERELVAAITSGGSTYYADSVKGRFTISRDNAKNTVYLQLHSLKPEDTAVYYCNKGGYAIRYDYYWGQGTQVTVSS | high polyreactivity
6 | QVQLVESGGGLVQAGGSLRLSCAASGSTLVNNAMGWDRQAPGKEREWVAAITFSGGTTYYADSVKGRFTISRDNAKNTVYLQMNSLKPEDTAVYYCAAEIWLEYVGYDYWGQGTQVTVSS | high polyreactivity
7 | QVQLVESGGGLVQAGGSLRLSCAASGFTFAFNAMGWYRQAPGKERELVAAISGTVSRTRYADSVKGRFTISRDNAKNTVYLQMNSLKPEDTAVYYCAARGYYRYSYPYQPYRMDYWGQGTQVTVSS | high polyreactivity
8 | QVQLVESGGGLVQAGGSLRLSCAASGNTFNKYAMGWYRQAPGKERELVAAISYSGGSTYYADSVKGRFTISRDNAKNTVYLQMNSLKPEDTAVYYCNAVYYVYPRRYDYWGQGTQVSVSS | high polyreactivity
9 | QVQLVESGGGLVQAGGSLRLSCSASGRIFRFYGMGWYRQAPGKDRELVAAISSRGGSTYYADSVKGRFTISRDNAKNTVYLQMNSLKPEDSGVYYCAASGAFWYPYDYWGQGTQVTVSS | high polyreactivity
10 | QVQLVESGGGLVQAGGSLRLSCAASGITFTQYAMGWYRQAPGKERELVASITSSGDNTYYADSVKGRFTISRDNAKNTVYLQMNSLKPEDTAVYYCNARYKWSRRKPWGYWGQGTQVTVSS | high polyreactivity
11 | QVQLVESGGGLVQAGGSLRLSCAASGRTFRKYTMGWYRQAPGKERELVAAISSRGGSTYYADSVKGRFTISRDNAKNTVYLQMNSLKPEDTAVYYCATDYITPSSEGDYWGQGTQVTVSS | high polyreactivity
12 | QVQLVESGGGLVQAGGSLRLSCAASGSTFAYNAMGWYRQAPGKERELVAAISWGDGITYYADSVKGRFTISRDNAKNTVYLQMNSLKPEDTAVITRDFGYWGQGTQVTVSS | low polyreactivity
13 | QVQLVESGGGLVQAGGSLRLSCAACGRIFTPNAMGWYRPAPGKERELVAAITWSGDNTYADSVKGRFTISRDNAKNTVYLQMNSLKPEDTAVYYCAAAYGYGHKNYGYWRQGTQVTVSS | low polyreactivity
14 | QVQLVESGGGLVQAGGSLRLSCAASGLTFGPYAMGWYRQAPGKERELVAAITSGGRTYYADSVKGRFTISRDNAKNTVYLKMNSLKPEDTAVYYCAADPLSGYDYWGQGTQVTVSS | low polyreactivity
15 | QVQLVESGGGLVQAGGSLRLSCAASGFIFDYYAMGWYRQAPGKERELVAAISGSGTSTYYADSVKGRFTISRDNAKYTVYLQMNSLKPEDTAVYYCSAESDWWSDIGYYWGQGTQVTVSS | high polyreactivity
16 | QVQLVESGGGLVQSGASLRLSCAASGLIIGLYALGWYRQAPGKERELVAAISDNGARTYYADSVKGRFTISRDNAKNTVYLQMNSLKPEDTAVYYCARDQSYHYNYWGQGTQVTVSS | low polyreactivity
17 | QVQLVESGGGLVQAGGSLRLSCAASGFTFKYTDMGWYRQAPGKERELVAAINWRGGSTYYADSLKGRFTISRDNAKNTVYLQMNSLKPEDTAFYYCNLVYRPSRYDYWGQGTQVTVSS | high polyreactivity
18 | QVQLVESGGGLVQAGGSLRLSCAASGRTFAYNTMGWYRQAPGKERELVAAISTSGVRTFYADSVKGRFTISRDNAKNTVYLQMNSLKPEETAVYSYDWGQGTQVTVSS | low polyreactivity
19 | QVQLEESGGGLVQAGGSLRLSCAASGSIFRRYARGWYRQAPGKERELVAAISRSGSSTYADSVKGRFTISRDNAKNTVYLQMNSLKPEDTAVYYCAASYAFLYYGYDSWGQGTQVTVSS | low polyreactivity
20 | QVQLVDSVGRLVQAGGSLRLSCAASGSTFVGYAMGWYRHAPGKEREMDADIDSIGGSTYYADSVKGRFTISRDNAKNTVYLQMNILKPEDTAVYYCAARRYDTALVLYDYWGQGTQVTVSS | low polyreactivity
21 | QVQLVESGGGLVQAGGSLRLSCAASGRIFYPYAMGWYRQAPGKERELVAAISRSGGSTYYADSVKGRFTISRDNAKNTVYLQMNSLKPEDTAVYYCAKVTSSGDAVLTQIPYGYDYWGQGTQVTVSS | low polyreactivity
22 | QVQLVESGAGLVQAGGSLRLSCAASGSILTAYAMGWYRQAPVKERELVAAISRGDITKYADSVKGRFTISRDNAKNTVYLQMNSLQPEDTAVYYCAARVPRYSDSTRGRADYYWGQVTQVTVSS | high polyreactivity

Row | Sequence | polyreactivity (PSR sort gate)
23 | QVQLVESGGGLVQAGGSLRLSCAASGSIFGTYAMGWYRQAPGKERELVAAITGNGGRTYYADSVKGRFTISRDNAKNTVYLQMNSLKPEDTAVYYCAKATSRRGFYYWGQGTQVTVSS | high polyreactivity
24 | QVQLVESGGGLVQAGGSLRLSCAASGFTFIRYSMGWYRQAPGKERELVATISRSGGRTYYADSVKGRFTISRDNAKNTVYLQMNSLKPEDTAVYYCNAEAIVLNGGGYWGQGTQVTVSS | high polyreactivity
25 | QVQLVESGGGLVQAGGSLRLSCAASGFIFNIYAMGWYRQAPGKERELVAAITFSGGSTYYADSVKGRFTISRDNAKNTVYLQKNSLKPEDTAVYYCAADYLSEYTTYDYWGQGTQVTVSS | low polyreactivity
26 | QVQLVESGGGLVQAGGTLRLSCAASGYTSSLNAMRWYRQAPGKERELVARITTDGTSTYYADSVKGRFTISRDNAKNTVYLQMNSLKPEDTAVYYCNARYPAYGVRSWYPYAYYYWGQGTQVTVSS | low polyreactivity
27 | QVQLVESGGALVQAGGSLRLSCAASGRTYWSYNIGWYRKAPGKERELVAAITSSGGTTNYADSVKGRFTISRDNAKNTVYLQMNRLKREDTAVYYFAAYSWYFGSRYDYWGQGTQVTVSS | low polyreactivity
28 | QVQLLESGGGLVQAGGSLRLSCAASGRIFVKYAMGWYRQAPGKERELVAAISKSGGSTYYADSVKGRFTISRDNAKNTVYLQMNSLKPEDTAVYYCAPRSRDQYSGSYRLDYWGQGTQVTVSS | low polyreactivity
29 | QVQLVESGGGLVQAGGSLRLSCAASGSTFYSNAMGWYRQAPGKERELVATISFRGGRTYYADSVKGRFTISRDNAMNTVYLQMNSLKPEDTAVYYCNAEVSGYPYTYGYRGQGTQVTVSS | low polyreactivity
30 | QVQLVESGGGLVQEGGSLRLSCAASGINFNVNALGWYKQAPGKERELVARITTSGGSTSYADSVKGRFTISRDNAKNTVYLQMNSLKPDDTAVYYCAADRARYYSEYDYWGQGTQVNVSS | low polyreactivity
31 | QVHLVESGGGLVQSRGSLRLSCAASGNIFGNNAMGWYRLAPGKERELVAAISSSGTSTYYADSVKGRFTISRDNAKNTVYLQMNSLKPEDTEVYYCNADPLPYDGYYDYDYWGQGTQVTVSS | low polyreactivity
32 | QVQLVESGGGLVQAGGSLRLSCAASGIIFFLYAMGWNRQAPGKERELVAAISSGGSTYYADSVKGRFTISRDNAKYTVYLQMNSLKPEDTAVYYFIARYWPFRYYYWGQGTQVTVSS | high polyreactivity
33 | QVQLVESGGGLVQAGGSLRLSCAASGFTFIKYAMGWSRQAPGNEMEFVAAITRSGTSTYYADSVKGRFTISRDNAKNTVYLQMNSLKPEDTAVYYCAATYPRYYSGEFDYWGQGTLVTVSS | high polyreactivity
34 | QVQLVQSGGGLVQAGGSLRLSCAASGSTFPTNAMGSYRQAPGKERELVAAISSSGGRTYYADSVKGRFTISRDNAKKTDYLQRNSLKPEDTAVYYCAAVWWRAYAVRMYYWGQGTQVTVSS | high polyreactivity
35 | QVQLVESGGGLVQAGGSLRLSCAASGRTFYRNAMGWYRQAPGKERELVAAISSTGSTYSADSVKGRFTISRDNAKNTVYLQMNSLKPEDTAVYYCARGVHGIFGYWGQGTQVTVSS | low polyreactivity
36 | QVQLVESGGGLVQAGGSLRLSCAASGRIFFATAMGWYRQAPGNERELVAAITSDGSTDYADSVKGRFTISRDNAKNTVYLQMNSLKPEDTAVYDCNADAYYRYGITMDYWGQGTQVTVSS | low polyreactivity
37 | QVQLVESGGGLVQAGGSHRLSCAASGRTFGYYAMGWYRQAPGKEREFVAAISWSGGSTYYADTVKGRFTISRDNAKNTVYLEMNSLKPEYTAVYYCATDTTYYAGSWYGYWGQGTQVTVSS | low polyreactivity
38 | QVQLQESGGGLEQAGGSLRKSCAANGNIFDADIVGRYRQAPGKKPELVDSITDGGITNYADSVKGRFTISRDNAKYTVYLQMNIQNPEDTAVYYCASIAYPDIPTFFDYYSYFFYWGQGTQVTVSS | high polyreactivity
39 | QVQLVESGGGLVQAGGSLSLSSAATGSNFGRNAMGWYRQATGKEREFVAAISQRGGRTYYSDSVKGRFTISRDNAKNTVYLQMNSLKPEETAVYYCAATYTRVPNRFYYWGQGTQVTVSS | high polyreactivity
40 | QVQLVESGGGLVQAGGSLRLSCAASGSTFQTYAMGWYRQAPGKERELVAAITWRGGSTYYADSVKGRFTISRDNAKTTVYLQMNSLKPEDTAVYSCAAKWHGAHDHRAAYESWGQGTQVTVSS | low polyreactivity
41 | QDQLVESGGGLVQAGGSLRLSCAASGSTFKYNAMGWYRQAPGQERELVAAITSGGSTDYADSVKGRFTISRDNAMNHVYFQMNLLNPEDTAVYYCNDDIYPHDGYPWQGDYDYWGQGTQVTVSS | low polyreactivity
42 | QVQLVESGRGLVQAGGILRLSCAASGFIFYYYAMVWYRQAPGKERELVAAISQRGGRTYYAESVKGSFTISRDYAKNTVYLQMNSLKTEDTAVYYCAARPAYRSSYYWGQGTQVTVSS | high polyreactivity
43 | QVQLVESGGGLVQAGGSLRLSCAASGLTFAQYAMGWYRQAPGKERELVAAITSRGTNTYYADSVKGRFTISRDNAKNTVYLQMNSLKPEDTAVYYCNTYRARLGTTFIDYDYWGQGTQVTVSS | high polyreactivity

— the nanobody polyreactivity screen of Harvey et al. (2022)
